The values that follow come from patent US20230053258.

The data set deals with recombinant human insulin (UniProt P01308).
recombinant human insulin, sequence (P01308 whole entry, looked up): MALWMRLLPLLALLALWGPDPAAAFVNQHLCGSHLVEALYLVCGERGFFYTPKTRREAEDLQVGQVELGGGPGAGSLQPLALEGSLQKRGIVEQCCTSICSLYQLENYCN

For “recombinant human IDE, inactive mutant E111Q”, the “insulin degradation (residual insulin by ELISA)” value was “the mutated IDE degraded only 15% of the insulin under the same conditions”.
Take “recombinant human wild type insulin degrading enzyme (WT rhIDE)”: the “insulin degradation (residual insulin by ELISA)” value was ~60% degradation following 2 hours at 37 °C.
